Source: publication PMC10654658, “The structural and functional investigation into an unusual nitrile synthase” (Nature Communications, 2023)

Biological target: AetD nitrile synthase (Aetokthonos hydrillicola)
Assay: SEC; Superdex 200 10/300 GL; 100 uL of 10 mg/mL AetD in 25 mM Tris-HCl pH 7.5, 150 mM NaCl; flow rate 0.2 mL/min; mass estimated from protein markers

In the case of “AetD nitrile synthase (from UniProt A0A861B387 1-239) (enzyme)”, the stoichiometry N is reported as 2.
